Data reported in article PMC7605441.

B1: wild-type murine RAD51AP1 fused to mCherry [mouse] / murine RAD51 with a C-terminal EGFP tag [mouse] (parent)
chain 1: MVRPTRNRKPINYSQFEDSGNDSDDDFISSSTPVNKSKTVPKVLKQDKPKPNLKNLQKEEVLPTEPPKKRVALDDKVFQRGLEVALALSVKELPTLTNQVKKSKEKSTDKQGKEKTENTGKPPRVSNCSVASDDVEDLDKITEEGDASSVEGERKSPSQAKAPRRRAPSEGSDGSSANDTESESATGEGSESDPDFDESKESDEDFGVRRSKESKKKTVQKKPAGEKKERKSKPKCEASVTSVDPAPAAIKSGSPSLPQAVGLPSEATRKPAIMCSPSAESKRPKWVPPAASGSRNSSSNALAGTPAKSPSQSLRLGLSRLAPVKRLHPSATSSQVR
chain 2: MAMQMQLEASADTSVEEESFGPQPISRLEQCGINANDVKKLEEAGYHTVEAVAYAPKKELINIKGISEAKADKILTEAAKLVPMGFTTATEFHQRRSEIIQITTGSKELDKLLQGGIETGSITEMFGEFRTGKTQICHTLAVTCQLPIDRGGGEGKAMYIDTEGTFRPERLLAVAERYGLSGSDVLDNVAYARGFNTDHQTQLLYQASAMMVESRYALLIVDSATALYRTDYSGRGELSARQMHLARFLRMLLRLADEFGVAVVITNQVVAQVDGAAMFAADPKKPIGGNIIAHASTTRLYLRKGRGETRICKIYDSPCLPEAEAMFAINADGVGDAKD

Variants of: B1
Test: co-immunoprecipitation (IP RAD51AP1, blot RAD51), band quantification
Details: asynchronous 293FT cells, transient co-expression, lane 5, parent: 1, read off a plot

ratio to parent	Variant
0.07	chain 1 T305D

Variants of: B1
Test: co-immunoprecipitation (IP GFP-RAD51, blot RAD51AP1), band quantification
Details: asynchronous 293FT cells, transient co-expression, lane 15, parent: 1, read off a plot

ratio to parent	Variant
0.32	chain 1 T305D

Variants of: B1
Test: co-immunoprecipitation (IP RAD51AP1, blot RAD51), band quantification
Details: asynchronous 293FT cells, transient co-expression, lane 8, parent: 1, read off a plot

ratio to parent	Variant
0.95	chain 1 T305A S309A

Variants of: B1
Test: co-immunoprecipitation (IP GFP-RAD51, blot RAD51AP1), band quantification
Details: asynchronous 293FT cells, transient co-expression, lane 18, parent: 1, read off a plot

ratio to parent	Variant
0.45	chain 1 T305A S309A

Variants of: B1
Test: co-immunoprecipitation (IP RAD51AP1, blot RAD51), band quantification
Details: asynchronous 293FT cells, transient co-expression, lane 9, parent: 1, read off a plot

ratio to parent	Variant
0.02	chain 1 T305D S309D

Variants of: B1
Test: co-immunoprecipitation (IP GFP-RAD51, blot RAD51AP1), band quantification
Details: asynchronous 293FT cells, transient co-expression, lane 19, parent: 1, read off a plot

ratio to parent	Variant
0.08	chain 1 T305D S309D

Variants of: B1
Test: co-immunoprecipitation (IP RAD51AP1, blot RAD51), band quantification
Details: asynchronous 293FT cells, transient co-expression, lane 6, parent: 1, read off a plot

ratio to parent	Variant
0.71	chain 1 S309A

Variants of: B1
Test: co-immunoprecipitation (IP GFP-RAD51, blot RAD51AP1), band quantification
Details: asynchronous 293FT cells, transient co-expression, lane 16, parent: 1, read off a plot

ratio to parent	Variant
0.53	chain 1 S309A

Variants of: B1
Test: co-immunoprecipitation (IP RAD51AP1, blot RAD51), band quantification
Details: asynchronous 293FT cells, transient co-expression, lane 7, parent: 1, read off a plot

ratio to parent	Variant
0.18	chain 1 S309D

Variants of: B1
Test: co-immunoprecipitation (IP GFP-RAD51, blot RAD51AP1), band quantification
Details: asynchronous 293FT cells, transient co-expression, lane 17, parent: 1, read off a plot

ratio to parent	Variant
0.57	chain 1 S309D
